Test results from PMC4460866, “A folded and immunogenic IgE-hyporeactive variant of the major allergen Phl p 1 produced in Escherichia coli” (BMC Biotechnology, 2015).
Numbering of substitutions follows the chain as printed. In names and notes the source's numbering stands.

Target: the molecule itself
Assay: SEC; gel filtration of the purified tag-free proteins; elution volumes corresponding to approximately 20 kDa; data not shown

B1: C-terminal domain of Phl p 1.0102 (wild-type), GST tag removed (domain or fragment)
chain: KVTFHVEKGSNPNYLALLVKYVNGDGDVVAVDIKEKGKDKWIELKESWGAIWRIDTPDKLTGPFTVRYTTEGGTKTEAEDVIPEGWKADTSYESK
Question: With B1 as the protein, how does the “stoichiometry N” value read?
Answer: The value was 2.

B2: IgE-hyporeactive (K8A, N11A, D55A) mutant of the C-terminal domain of Phl p 1.0102, GST tag removed (domain or fragment)
chain: B1 chain with K8A, N11A, D55A
Question: With B2 as the protein, how does the “stoichiometry N” value read?
Answer: Its value is 2.
